Assay results as given in patent publication US20250297020A1 (ADALTA, published 2025).
“And” between values parts separate entries of the source, which are not always exact repeats. Equal values may be shown once.

Key:
[1] = molecular target: T1, human RANK-L (Receptor Activator of Nuclear factor Kappa B Ligand), recombinant (human, UniProt O14788 140-317, limits assumed); test: SPR (Biacore) sensorgrams with fitted curves; panel headed "pAb+RANKL"; value from the column "KD" of the table drawn in the panel
T1 construct: The Methods also describe RANKL lipoparticles for phage ELISA and SPR; also called hRANK-L; hRANKL
T1 sequence (looked up): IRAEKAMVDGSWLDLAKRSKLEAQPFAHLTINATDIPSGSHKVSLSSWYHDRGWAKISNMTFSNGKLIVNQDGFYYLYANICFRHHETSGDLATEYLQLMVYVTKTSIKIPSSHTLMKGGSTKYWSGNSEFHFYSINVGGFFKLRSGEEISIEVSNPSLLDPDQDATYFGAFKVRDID
Description: Measurement of the kinetics of ADR03 binding to human RANK-L was carried out by immobilising human RANKL onto a research grade CMS sensor chip using standard amine coupling. Each of three surfaces is first activated for seven minutes using a 1:1 mixture of […] N-hydroxysuccinimide (NHS) and […] 1-ethyl-3-(3-dimethylaminopropyl)-carbodimide (EDC). Then, the RANK-L sample is diluted 1- to 50-fold in 10 mM sodium acetate, pH 4.0, and exposed to the activated chip surface for different lengths of time (ten seconds to two minutes) to create three different density surfaces of RANK-L. Each surface is then blocked with a seven-minute injection of 1 M ethanolamine, pH 8.2. RANK-L is diluted 100-fold and injected for different amounts of time to be captured at three different surface densities (60 RU, 45 RU, 12 RU; Response Unit (RU) is termed by Biacore and relates to target molecule per surface area) onto a streptavidin-containing sensor chip. […] The kinetic responses for the ADR03 injections can be analyzed using the non-linear least squares analysis program CLAMP (Myszka, D. G. and Morton, T. A. (1998) Trends Biochem. Sci., 23: 149-150). Calculations of multivalent interactions can be determined using a model to fit the avidity of the bivalent interaction of ADR03 with RANK-L (Drake et al. (2004) Anal. Biochem., 328: 35-43; and Muller et al., (1998) Anal. Biochem. 261: 149-158).

[2] = molecular target: T1, human RANK-L (Receptor Activator of …); test: SPR (Biacore), human RANK-L immobilised on the chip, ADR03 injected
Description: Measurement of the kinetics of ADR03 binding to human RANK-L was carried out by immobilising human RANKL onto a research grade CMS sensor chip using standard amine coupling. Each of three surfaces is first activated for seven minutes using a 1:1 mixture of […] N-hydroxysuccinimide (NHS) and […] 1-ethyl-3-(3-dimethylaminopropyl)-carbodimide (EDC). Then, the RANK-L sample is diluted 1- to 50-fold in 10 mM sodium acetate, pH 4.0, and exposed to the activated chip surface for different lengths of time (ten seconds to two minutes) to create three different density surfaces of RANK-L. Each surface is then blocked with a seven-minute injection of 1 M ethanolamine, pH 8.2. RANK-L is diluted 100-fold and injected for different amounts of time to be captured at three different surface densities (60 RU, 45 RU, 12 RU; Response Unit (RU) is termed by Biacore and relates to target molecule per surface area) onto a streptavidin-containing sensor chip. The experiments can be performed on a Biacore® 2000 or T100 optical biosensor. ADR03 is supplied at approximately 100 μg/mL and tested in a 3-fold dilution series in Sample Running Buffer over the three RANK-L surfaces. Each of ADR03 concentrations (five, 3-fold dilutions of RANK-L-coupled sensors) is tested three times to assess reproducibility of the assay. Each test is injected at a flow rate of 100 μL/minute for 60 seconds, followed by a three-minute dissociation phase. Bound ADR03 can then be removed using a five-second pulse with sensor regeneration solution. All data is usually collected at a temperature-controlled 20° c. The kinetic responses for the ADR03 injections can be analyzed using the non-linear least squares analysis program CLAMP (Myszka, D. G. and Morton, T. A. (1998) Trends Biochem. Sci., 23: 149-150). Calculations of multivalent interactions can be determined using a model to fit the avidity of the bivalent interaction of ADR03 with RANK-L (Drake et al. (2004) Anal. Biochem., 328: 35-43; and Muller et al., (1998) Anal. Biochem. 261: 149-158).

[3] = molecular target: T1, human RANK-L (Receptor Activator of …); test: cell-based or functional assay

B1: ADR03 i-body (RANK-L binding i-body on the NCAM domain 1 scaffold) (designed binder)
chain: LQVDIVPSQGEISVGESKFFLCQVAGAHTVESISWFSPNGEKLTPNQQRISVVWNDDSSSTLTIYNANIDDAGIYKCVVVASARRGFGWVYPHEATVNVKIFQ
notes: I-bodies were expressed in E. coli with FLAG or penta-His tags; also called ADR3; i-body ADR03
In the case of B1, the Kd [1] is reported as 13.2 nM, the Kd [2] is reported as 13.2 nM and the koff [2] is reported as 0.00029 s⁻¹. For the same binder, the kon [2] was ~23000 M⁻¹ s⁻¹ and the “IC50 of inhibition of hRANK-L-induced production of TRAP positive multinucleated cells (RAW264.7)” value [3] was 100 ng/mL and 3 nM.
